Test results as given in paper PMC7137635, “Disrupting the LC3 Interaction Region (LIR) Binding of Selective Autophagy Receptors Sensitizes AML Cell Lines to Cytarabine” (Frontiers in Cell and Developmental Biology, 2020).
Non-standard residues stand in square brackets, D forms with d. No end group written: not given here. *: point of attachment. Biotin = O=C1N[C@H]2[C@H](CS[C@H]2CCCCC(=O)*)N1; pS = N[C@@H](COP(=O)(O)O)C(=O)O

Assays:
[1] = target: HIS-tagged GATE-16wt (aa 1-115) (human, UniProt P60520 1-115); experiment: BLI; Octet RED96; N-terminally biotinylated peptides on streptavidin biosensors, quenched with biocytin; HIS-tagged LC3B/GATE-16 proteins as analyte, 6.8 nM to 5 μM (LC3Bwt on NDP52 peptide: 312.5 nM to 20 μM); DPBS with 150 mM NaCl, 1% BSA, 0.02% Tween 20; 1:1 global fit; conditions: both partners purified
[2] = target: HIS-tagged LC3Bwt (aa 1-119) (human, UniProt Q9GZQ8 1-119); experiment: as above; conditions: both partners purified

Sequence of HIS-tagged GATE-16wt (aa 1-115) (P60520 1-115): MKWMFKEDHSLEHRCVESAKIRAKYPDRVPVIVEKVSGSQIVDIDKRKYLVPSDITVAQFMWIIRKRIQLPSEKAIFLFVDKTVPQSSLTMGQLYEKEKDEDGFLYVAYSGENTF

B1: p62 LIR peptide (332-346), biotinylated (peptide)
peptide: Biotin-SGGDDDWTHLSSKEV
notes: human p62/SQSTM1 LIR peptide, residues 332-346; also called p62 (332–346); source: synthetic peptide (GenScript, over 75% purity)
binding result [1]: binds

B2: OPTN LIR peptide (172-186), biotinylated (peptide)
peptide: Biotin-GSSEDSFVEIRMAEG
notes: human optineurin (OPTN) LIR peptide, residues 172-186; also called OPTN (172–186); OPTN peptide; source: synthetic peptide (GenScript, over 75% purity)
Kd [2]: 8.4 µM

B3: pS177 OPTN LIR peptide (172-186), biotinylated (peptide)
peptide: Biotin-GSSED[pS]FVEIRMAEG
notes: also called pS177 OPTN (172–186); pS177 OPTN peptide; source: synthetic peptide (GenScript, over 75% purity)
Kd [2]: 0.8 ± 0.048 µM
